# Experimental data published in publication PMC6280682, “The Micronemal Plasmodium Proteins P36 and P52 Act in Concert to Establish the Replication-Permissive Compartment Within Infected Hepatocytes” (Frontiers in Cellular and Infection Microbiology, 2018).
# T1: Plasmodium yoelii P36 with a C-terminal mCherry tag (P36^mCherry) (Plasmodium yoelii, UniProt Q7RPW4 25-310)
# T1 construct: P36, Plasmodium yoelii 17X, 6-cys s48/45 family, two s48/45 domains; predicted MW with mCherry 66 kDa; also called Py P36^mCherry; not shown: mCherry, C-terminal, kept
# T1 sequence: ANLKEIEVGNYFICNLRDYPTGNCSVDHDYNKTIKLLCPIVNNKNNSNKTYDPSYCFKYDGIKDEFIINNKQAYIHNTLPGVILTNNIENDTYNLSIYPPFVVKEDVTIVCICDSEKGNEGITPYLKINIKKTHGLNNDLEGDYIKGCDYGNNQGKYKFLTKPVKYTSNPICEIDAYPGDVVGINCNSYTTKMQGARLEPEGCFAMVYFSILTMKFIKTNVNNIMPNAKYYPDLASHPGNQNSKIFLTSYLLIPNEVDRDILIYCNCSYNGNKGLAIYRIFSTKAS
# B1: Plasmodium yoelii P52 (natural protein)
# chain: NVPNPNTTIGHFEICEVNTSSGDAEECVLENEFGKMFLFICDIDYNEMSKNIVLPSECAKKTYIDHVNPNGTSPEVNTYDIFPDLIAANESQFRDKFYFYGTPYSSKDIDFICLCFSETKPDIKHVMKMSFKKMTKKIKGCDFGDNIPTKKDLTNGKALYENSSCHIYAYPGDVIGINCYKKDINNIYNNNLELQPNNCFHNVYYEDDILLSSKNLIPNSRVIPDPSNDVKLSKMHSYMSYIILPDEINENVKISCACKRDEYIGTMFLYVNTSKNILTSPDNNVEEIAPLNDHYISIGDMWDMGLHENPEQIQGIISNHANKKYYEHMKIYKSNKMDSSDDDESNETESSENESNERTHNGNRANKDANNSEKMTGNRRKKNNSINNTNYYSNYEDDNGINISTHDKYYEDQHFGNNGPLRKKRTFWQNMFGTS
# notes: P52, Plasmodium yoelii 17X, 6-cys s48/45 family, two s48/45 domains; predicted MW 53 kDa; also called Py P52; source: endogenous, P. yoelii P36^mCherry salivary gland sporozoite lysate
# Target: T1, Plasmodium yoelii P36 with a C-terminal …
# Experiment: affinity purification with mass spectrometry; BS3-crosslinked P36^mCherry sporozoite lysate immunoprecipitated with RFP-Trap, S-Trap digest, LC-MS/MS (Q-Exactive HF), spectral counting
# Conditions: partners not purified
binder,measurement,value
B1,stoichiometry N,~1
